Data on five molecules can be found in patent US12145987B2, “Method for depleting cytotoxic T cells using an anti-LAG-3 antibody composition” (Daiichi Sankyo Company, Limited, priority 2017, dated 2024).

For test [1], the target named is T1, immunoglobulin-like domains of human LAG-3 (Homo sapiens, UniProt P18627).
T1 construct: expressed in transfected cells; host or cells: HEK293T cells, pcDNA3.1 plasmids, transient transfection
T1 sequence (P18627 263-525): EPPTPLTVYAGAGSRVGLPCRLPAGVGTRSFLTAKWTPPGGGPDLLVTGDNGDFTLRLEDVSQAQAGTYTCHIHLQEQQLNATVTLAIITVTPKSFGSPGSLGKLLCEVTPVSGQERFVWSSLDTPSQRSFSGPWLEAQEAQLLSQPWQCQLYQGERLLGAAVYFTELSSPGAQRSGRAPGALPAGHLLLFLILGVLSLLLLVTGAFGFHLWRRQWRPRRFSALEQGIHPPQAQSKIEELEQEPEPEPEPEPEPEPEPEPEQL
In words: Identification of epitope: flow cytometry on HEK293T cells expressing human LAG-3 domain deletion constructs. In kind it is binding. To be noted: FLAG-tagged 263-525, HEK293T cells, 10 μg/mL. An excerpt:
(§1) Based on the fact that the rat anti-LAG-3 antibodies rLA204, rLA212, rLA225, rLA869, and rLA1264 are antibodies developed using a mutant deficient in the 1st and 2nd domains (which will be hereinafter referred to respectively as domains 1 and 2) from the N terminus out of the four immunoglobulin-like domains present in the extracellular region of LAG-3 as an immunogen, in order to reveal which of the remaining 3rd and 4th domains (which will be hereinafter referred to respectively as domains 3 and 4) from the N terminus these antibodies bind to, binding of the obtained rat anti-LAG-3 antibodies to cells expressing domains 3 and 4, or only domain 4, was investigated by flow cytometry.
(§2) Each expression plasmid (cloned into pcDNA3.1) of either domain 3 and onwards (263-525) or domain 4 and onwards (353-525) of human LAG-3 with a FLAG tag sequence (DYKDDDDK) (SEQ ID NO:87) added to the N terminus was introduced into HEK293T cells using Lipofectamine 2000 (manufactured by Life Technologies Corp.), and the cells were cultured for 1 day and then recovered, to investigate the binding activity of the antibodies by flow cytometry according to the method described in Example 1)-4.
(§3) In addition to the two types of constructs in FIG. 5A, expression plasmids were used of domain 2 and onwards (amino acid positions 173-525 of the human LAG-3 amino acid sequence in SEQ ID No: 86, FIG. 101) of human LAG-3 with a FLAG tag sequence (DYKDDDDK) (SEQ ID NO:87) added to the N terminus and the full length of human LAG-3 (both were constructed using pcDNA3.1; the nucleotide sequence encoding the amino acid sequence of human LAG-3 is described in SEQ ID No: 85, FIG. 100).
(Flow cytometry measures light scatter and fluorescence of single cells or particles in a stream.)

Test [2] has as its target T2, immunoglobulin-like domains of human LAG-3 (Homo sapiens, UniProt P18627).
T2 construct: expressed in transfected cells; host or cells: HEK293T cells, pcDNA3.1 plasmids, transient transfection
T2 sequence (P18627 353-525): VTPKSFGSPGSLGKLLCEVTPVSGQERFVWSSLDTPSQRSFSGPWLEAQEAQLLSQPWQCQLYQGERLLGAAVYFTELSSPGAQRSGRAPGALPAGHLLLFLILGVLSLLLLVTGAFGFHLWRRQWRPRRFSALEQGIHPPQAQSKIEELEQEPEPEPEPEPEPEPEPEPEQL
The test is described as above. It counts as binding. The settings on record: FLAG-tagged 353-525, HEK293T cells, 10 μg/mL.
Description: as §1, §2, §3

Test [3] deals with immunoglobulin-like domains of human LAG-3. The description is as above. It counts as binding. The settings on record: concluded from binding to deletion constructs.
Description: as §1, §2, §3

Test [4] has as its target T3, binding of LAG-3 to MHC class II molecules (Homo sapiens, UniProt P18627).
T3 construct: purchased R&D Systems, Inc
In words: LAG-3/MHC class II binding test (LAG-3-Fc binding to Raji cells, flow cytometry). To be noted: rat antibodies evaluated at 10 μg/mL. On the procedure:
This was conducted according to a previous report (Non Patent Literature 8). That is, 20 μL/well of LAG-3-Fc (manufactured by R&D Systems, Inc.) diluted with RPMI1640 containing 10% FBS to 25 nM was added to a 96-well U-bottom microplate, and 20 μL/well of the hybridoma culture supernatant was added thereto, followed by stirring and standing at 4° C. for 20 minutes. Then, 10 µL/well (2.5×10^5 cells/well) of Raji cells, which endogenously highly express MHC class II molecules, was added thereto, followed by stirring and standing at 4° C. for a further 30 minutes. The cells were washed twice with PBS or a FACS buffer, then an Anti-Human IgG PE conjugate (manufactured by Jackson ImmunoResearch Laboratories, Inc.) diluted 200-fold with a FACS buffer was added thereto for suspension, followed by standing at 4° C. for 20 minutes. After washing with PBS or a FACS buffer, the cells were resuspended in PBS containing 1 to 2% paraformaldehyde, followed by detection using a flow cytometer (CantoII: manufactured by Becton, Dickinson and Company or FC500: manufactured by Beckman Coulter Inc). The data was analyzed using FlowJo (manufactured by Tree Star Inc.), and the percentage of inhibition was calculated by the following formula. Percentage of inhibition (%)=100−(A−B)/(C−B)×100 • A: Mean fluorescence intensity of each sample well • B: Mean fluorescence intensity of background
When adding LAG-3-Fc and the antibody, 20 μL of a medium was added each time. Except for that, the same operation as in the sample well was performed. • C: Mean fluorescence intensity of maximum binding
When adding the antibody, 20 μL of a medium was added thereto.

T3 sequence (P18627 with tags, fused parts or gaps limits assumed): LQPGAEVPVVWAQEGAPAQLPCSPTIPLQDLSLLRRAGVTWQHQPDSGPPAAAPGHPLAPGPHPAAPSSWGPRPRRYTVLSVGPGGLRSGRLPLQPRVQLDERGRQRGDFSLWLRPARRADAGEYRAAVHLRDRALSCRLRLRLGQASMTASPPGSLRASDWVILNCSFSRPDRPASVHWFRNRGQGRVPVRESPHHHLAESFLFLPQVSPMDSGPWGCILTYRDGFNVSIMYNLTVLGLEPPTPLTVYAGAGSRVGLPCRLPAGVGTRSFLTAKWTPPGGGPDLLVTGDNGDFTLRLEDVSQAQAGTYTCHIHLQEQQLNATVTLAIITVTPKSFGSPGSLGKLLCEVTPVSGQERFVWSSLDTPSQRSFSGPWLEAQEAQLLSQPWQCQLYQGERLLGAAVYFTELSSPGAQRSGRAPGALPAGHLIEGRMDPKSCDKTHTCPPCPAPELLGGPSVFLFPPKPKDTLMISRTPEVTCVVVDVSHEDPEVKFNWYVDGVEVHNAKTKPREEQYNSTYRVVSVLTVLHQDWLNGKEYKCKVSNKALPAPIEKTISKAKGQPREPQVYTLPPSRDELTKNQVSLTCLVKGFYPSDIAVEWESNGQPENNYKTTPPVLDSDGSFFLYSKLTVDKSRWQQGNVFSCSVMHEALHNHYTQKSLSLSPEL

B1: rLA225: anti-human LAG-3 rat monoclonal antibody; heavy chain variable region SEQ ID No: 10, light chain variable region SEQ ID No: 12 (antibody, listed as Rattus norvegicus, V domains shown)
VH: EVQLVESGGGLVQPGRSMKLSCVASGFTFSNYYMAWVRQAPTKGLEWVASISTGGGNTYYRDSVKGRFTISRDNAKSTLYLQMDSLRSEDTATYYCARPPYGYNYGWFTYWGQGTLVTVSS
VL: DIQMTQSPASLSASLGETVTIECRASEDIHNGLVWYQQKPGKSPQLLIYNANSMHTGVPSRFSGSGSGTQYSLKINSLQSEDVASYFCQQYYNYPRTFGGGTKLELKRA
As to B1, the “binding to cells expressing the construct containing domains 3 and 4 of human LAG-3” value in test [1] was “bound”. Further, in test [2], the “binding to cells expressing the construct containing only domain 4 of human LAG-3” value is “none of them bound”. For the same molecule, the “immunoglobulin-like domain of LAG-3 bound (epitope)” value in test [3] was “domain 3”. Further, the “inhibitory activity in the LAG-3/MHC class II binding test” value (shortened to “inhibitory activity”) in test [4] is reported as “almost no inhibitory activity”.

B2: rLA869: anti-human LAG-3 rat monoclonal antibody; heavy chain variable region SEQ ID No: 14, light chain variable region SEQ ID No: 16 (antibody, listed as Rattus norvegicus, V domains shown)
VH: EVQLVESGGGLVQPGRSLKLSCAASGFTYRTYVMAWVRQGPTQGLEWVASISTGGVSTYYRDSVKGRFTISRDNAKNTLYLQMDSLRSEDTATYYCAKDMLNGYNSQGLFDYWGQGVMVTVSS
VL: NIVMTQSPKSMSISVGDRVTMNCRASQNVDNTIAWYQQKPGQSPKLLIYFASDRYTGVPDRFTGGGYGTDFTLTINSVQAEDAAFYYCQRIYNSPLTFGSGTKLEIRRA
As to B2, the “immunoglobulin-like domain of LAG-3 bound (epitope)” value in test [3] is listed as “domain 3”. Also, the “inhibitory activity” value in test [4] is on record as “almost no inhibitory activity”.

B3: rLA204: anti-human LAG-3 rat monoclonal antibody; heavy chain variable region SEQ ID No: 2, light chain variable region SEQ ID No: 4 (antibody, listed as Rattus norvegicus, V domains shown)
VH: EVELVESGGGLVQPGRSMKLSCAASGFTFRTYGMAWVRQAPTKGLEWVASISTGGGSTYYRDSVKGRFTISRDNAKSTLYLQMDSLRSEDTATYYCTTDLINYPGIGGFAFWGQGTLVTVSS
VL: NIVMTQSPKSMSISVGDRVTMNCKASQNVYNNIAWYQQKPGKSPKLLIYYASNRYTGVPDRFTGSGSGTDFTLTIHSVQAEDAAFYYCQRLYNSPPTFGGGTKLELKRA
Regarding B3, the “binding to cells expressing the construct containing domains 3 and 4 of human LAG-3” value in test [1] is “bound”. Moreover, the “binding to cells expressing the construct containing only domain 4 of human LAG-3” value in test [2] was “none of them bound”. Also, in test [3], the “immunoglobulin-like domain of LAG-3 bound (epitope)” value was “domain 3”. In addition, the “inhibitory activity” value in test [4] is given as “almost no inhibitory activity”.

B4: rLA212: anti-human LAG-3 rat monoclonal antibody; heavy chain variable region SEQ ID No: 6, light chain variable region SEQ ID No: 8 (antibody, listed as Rattus norvegicus, V domains shown)
VH: EVQLVESGGGLVQPGRSLKLSCAASGFTYRSYVMAWVRQAPTRGLEWVASISTGGGNTYYRDSVKGRFTISRDNAKNTLYLQMDSLRSEDTATYYCAEDMSNSGYGLFDYWGQGVMVTVSS
VL: NIVMTQSPKSMSISVGDRVTMNCKAGQNVDNNIAWYQKKPGQSPKLLIYYASNRNTGVPDRFTGGGYGTDFTLTINSVQAEDAAFYYCQRISNSPYTFGAGTELELKRA
For the molecule B4, the “binding to cells expressing the construct containing domains 3 and 4 of human LAG-3” value in test [1] is reported as “bound”. Moreover, the “binding to cells expressing the construct containing only domain 4 of human LAG-3” value in test [2] is “none of them bound”. Also, the “immunoglobulin-like domain of LAG-3 bound (epitope)” value in test [3] is listed as “domain 3”. For the same molecule, the “inhibitory activity” value in test [4] was “almost no inhibitory activity”.

B5: rLA1264: anti-human LAG-3 rat monoclonal antibody; heavy chain variable region SEQ ID No: 18, light chain variable region SEQ ID No: 20 (antibody, listed as Rattus norvegicus, V domains shown)
VH: EVQLVESGGGLVQPGRSLKLSCAASGFTFSSYYMAWVRQAPTKGLEWVAYISNGGYSTYYRDSVKGRFTISRENAKSTLYLQMDSLRSEDTATYYCTITDHSGYRFTYWGQGTLVTVSS
VL: DIQMTQSPSLLSASVGDRVTLSCKASQSIYNSLAWYQQKLGEAPKLLIYDANSLQTGIPSRFSGSGSGTDFTLTISSLQPEDVATYFCQKYYSGNTFGAGTKLELKRA
With B5, the “immunoglobulin-like domain of LAG-3 bound (epitope)” value in test [3] was “domain 3”. Moreover, the “inhibitory activity” value in test [4] is listed as “almost no inhibitory activity”.
